We go through 2 substances from US20240317840A1.

The target of experiment [1] is HBsAg AY serotype (Hepatitis B virus). The experiment is described as follows: SPR epitope binning; competitor (1st, saturating Ab): NOV3842.
Experiment [2] deals with HBsAg AD serotype (Hepatitis B virus). The description is as above.
The target of experiment [3] is HBsAg AY serotype (Hepatitis B virus). The experiment is described as follows: SPR epitope binning; competitor (1st, saturating Ab): NOV3832.
In experiment [4] the target is HBsAg AD serotype (Hepatitis B virus). The description is as above.
The target in experiment [5] is HBsAg AY serotype (Hepatitis B virus). The experiment is described as follows: SPR epitope binning; competitor (1st, saturating Ab): NOV3540.
Experiment [6] has as its target HBsAg AD serotype (Hepatitis B virus). The description is as above.
Experiment [7] concerns the target HBsAg AY serotype (Hepatitis B virus). The experiment is described as follows: SPR epitope binning; competitor (1st, saturating Ab): CR8087.
Experiment [8] addresses HBsAg AD serotype (Hepatitis B virus). The experiment is described as above.
The target in experiment [9] is HBsAg AY serotype (Hepatitis B virus). Nature of the experiment: SPR epitope binning; competitor (1st, saturating Ab): NOV3841.
The target of experiment [10] is HBsAg AD serotype (Hepatitis B virus). Described as above.
The target in experiment [11] is HBsAg AY serotype (Hepatitis B virus). The experiment is described as follows: SPR epitope binning; competitor (1st, saturating Ab): HBC34 (self).
The target of experiment [12] is HBsAg AD serotype (Hepatitis B virus). The experiment is described as above.
For experiment [13], the target named is HBsAg of HBV genotype D, serotype ayw (Hepatitis B virus). Nature of the experiment: cell-based or functional assay.

Take HBC34 (antibody): the binding of second antibody (% of its binding as first antibody) in [1] was 134; in experiment [2] it was 121; in experiment [3], 257; in experiment [4], 126; in experiment [5] it was 131; in experiment [6], 121. The binding of second antibody (% of its binding as first antibody) in [7] came to 166; in experiment [8], 146; in experiment [9], 151; in experiment [10], 124; in experiment [11], 0; in experiment [12] it was 0.

For the substance Neg. Control (antibody), in experiment [13], the Virus neutralization EC50 was above 500 nM.
